Data on 21 sequences can be found in the supplement of paper PMC9170038.

For this data set, the system named is MS2 coat protein. The experiment in a line: apparent KD of MS2 coat protein; designed switch direction (-1 OFF switch, 1 ON switch): 1; higher = weaker reporter binding. The essentials:
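Designed RNA switches with common flanks were transcribed on Illumina chips by stalled E. coli RNA polymerase and titrated with SNAP-549-labelled MS2 coat protein, from 0.7 or 1.5 nM doubling to 3 µM, in Tris-HCl pH 7.5 buffer with KCl, MgCl2, BSA, DTT, tRNA and Tween-20. Steps lasted 0.8–1.5 h (lowest) to 10–20 min (highest). Titrations ran without input, with 200 uM small-molecule ligand, or with an oligonucleotide input. Normalised cluster fluorescence was curve-fitted, and apparent KD is the per-design median over clusters.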

[1] abbreviates: input ligand: microRNA oligo, concentration not stated.
Setting [2] is: Eterna round: R95, input ligand: microRNA oligo, concentration not stated.
The mark [3] stands for this setting: Eterna round: R95, input ligand: FMN 200 uM.
Setting [4] is: Eterna round: R95, input ligand: none.

In the case of “GGCGAAGGAGAAGGAUAUAUCUUGGACAUAUAGAUGCACAUGAGGAUCACCCAUGUCAUCAUGGGAUAGAAGGUCUGCUUCACC [Eternabot solution 33] (Eterna round: R96, puzzle: Same State NG 2)”, the “apparent KD of MS2 coat protein” value was 0.0132 µM (input ligand: FMN 200 uM), 0.0103 µM under setting [1] and 0.0142 µM (input ligand: none).

With “AACCAGGCCAGAGGAUAUGGGAAAGGAAGUGUACUAGAAGGCUGCAGCCUGAACAAACAUGAGGAUCACCCAUGUAAAACGGUG [PowerStrip SSNG 1.27] (Eterna round: R96, puzzle: Same State NG 1)”, the “apparent KD of MS2 coat protein” value (input ligand: FMN 200 uM) is 0.296 µM, the “apparent KD of MS2 coat protein” value under setting [1] worked out at 0.15 µM and the “apparent KD of MS2 coat protein” value (input ligand: none) was 0.304 µM.

Regarding “GGAAAGAGGUCAGGAUAUGAAUGUUUGGGACAUGAGGAUCACCCAUGUAAUAGAAGAAAUCUACAUUAGAAGGGACAAGGAAGG [AK SSNG2-V2-6] (Eterna round: R96, puzzle: Same State NG 2)”, the “apparent KD of MS2 coat protein” value (input ligand: FMN 200 uM) was 0.0635 µM, the “apparent KD of MS2 coat protein” value under setting [1] stood at 0.0545 µM and the “apparent KD of MS2 coat protein” value (input ligand: none) was 0.0793 µM.

Turning to “UGGCUCAGACGAGGAUAUACGUGGUCACAUGAGGAUCACCCAUGUCUCGAGCUUCGGCUCGAGGCGUAGAAGGCGUCUGAGCCA [SSNG2/6-A2] (Eterna round: R96, puzzle: Same State NG 2)”, the “apparent KD of MS2 coat protein” value (input ligand: FMN 200 uM) turned out to be 0.125 µM, the “apparent KD of MS2 coat protein” value under setting [1] amounted to 0.141 µM and the “apparent KD of MS2 coat protein” value (input ligand: none) turned out to be 0.218 µM.

On to “GGUGCAAUAAACGCCUACAUGAGGAUCACCCAUGUAUGUAGGCAGGAUAUCGUAUGCAAAGCAUACGAGAAGGGCUAUAGUACC [Mat - Same State NG 3 - JL Mod - D45] (Eterna round: R96, puzzle: Same State NG 3)”, for which the “apparent KD of MS2 coat protein” value came out at 0.0571 µM (input ligand: FMN 200 uM), 0.124 µM under setting [1] and 0.146 µM (input ligand: none).

Turning to “CUCAAACAUGAGGAUCACCCAUGUGUUGUCGUGGGAGGAUAUCCCGGUUCGGUGGCGUCGGGAGAAGGCCUAUGUC [× ×•×ª×• ×ž×“×™× ×” × ×—×ª-17] (puzzle: Same State 1)”, the “apparent KD of MS2 coat protein” value under setting [2] amounted to 0.0548 µM.

Consider “CUCAAAACAAGUUGCAGUGUUCGUCUUUAACAUGAGGAUCACCCAUGUAAUAGCCCAGUAGAAGCGCUCGGGCCACC [Ceedbeen] (puzzle: Sensor for hsa-mir-208a)”, for which the “apparent KD of MS2 coat protein” value came out at 0.0345 µM under setting [3], 0.0264 µM under setting [2] and 0.0319 µM under setting [4].

As for “CUGAGCAAUCAAGGAUAUCACGUCGAUUAGACGUGAGAAGGUGAUCAUUACAUGAGGAUCACCCAUGUGUUACAUGGAGCUCAG [Brourd's SSNG1/1-A2 mod 3] (Eterna round: R96, puzzle: Same State NG 1)”, the “apparent KD of MS2 coat protein” value is, setting by setting: (input ligand: FMN 200 uM) 0.395 µM; under setting [1], 0.0549 µM; (input ligand: none) 0.159 µM.

As for “UCUUGGUUUUUGCUCGUUUUUUGUGUUGAACAUGAGGAUCACCCAUGUAUUGUACGGUCCAAUUUAAUAAUAAUCCG [JMF 64] (puzzle: Sensor for hsa-mir-208a)”, the “apparent KD of MS2 coat protein” value reads like this: under setting [3], 0.0288 µM; under setting [2], 0.0219 µM; under setting [4], 0.0306 µM.

For “CCUUGUAGCGGAGGAUAUGGGCCUCACUCAGUCAAAGAGUGAGAAACAUGAGGAUCACCCAUGUCCCAGAAGGCCGCUGCAUGG [Ridizaer] (Eterna round: R96, puzzle: Same State NG 2)”, the “apparent KD of MS2 coat protein” value was determined as 0.0121 µM (input ligand: FMN 200 uM), 0.0138 µM under setting [1] and 0.0191 µM (input ligand: none).

Regarding “CGGCGCUGUCGAGAGGAUAUGCGGUGAUGGACAUGAGGAUCACCCAUGUUAGCGAUAGCAUUACGGUAGAAGGCUCUACAGUUGC [Soteed Omei mod 8] (puzzle: Same State 2)”, the “apparent KD of MS2 coat protein” value amounted to 0.0192 µM under setting [3], 0.0749 µM under setting [2] and 0.0669 µM under setting [4].

With “UUAAUAAUGUAAGGAUAUACAUGAGGAUUUCUCGUAGAAGGUACAGGACAUGAGGAUCACCCAUGUAUCGCUCCGUAGAGCGUA [Mat - Same State NG 1 - JL mod - D23] (Eterna round: R96, puzzle: Same State NG 1)”, the “apparent KD of MS2 coat protein” value runs as follows: (input ligand: FMN 200 uM) 0.601 µM; under setting [1], 0.228 µM; (input ligand: none) 0.299 µM.

For “UGGCUCAGACUAGGAUAUGAUCAUGGCGCUUCGGCGCAUACAUGAGGAUCACCCAUGUAAAGUGAUCAGAAGGAGUCUGAGCCA [SSNG2/7-C2] (Eterna round: R96, puzzle: Same State NG 2)”, the “apparent KD of MS2 coat protein” value stood at 0.0145 µM (input ligand: FMN 200 uM), 0.0119 µM under setting [1] and 0.0158 µM (input ligand: none).

On to “GCUCGCGGCACAGGAUAUGGGUGCCUGUACAUGAGGAUCACCCAUGUUAAGGGACGGAUUACGAACCAGAAGGGUGUGGCAAGC [Reonisma] (Eterna round: R96, puzzle: Same State NG 2)”, for which the “apparent KD of MS2 coat protein” value (input ligand: FMN 200 uM) was 0.0955 µM, the “apparent KD of MS2 coat protein” value under setting [1] turned out to be 0.294 µM and the “apparent KD of MS2 coat protein” value (input ligand: none) came to 1.06 µM.

Regarding “GUGGUCAGACAUGAGGAUCACCCAUGUGGAAUAAAUAAGGAGAAGGAUAUCGAAUAUAGGAUAUACGAGAAGGUCUGGUUGGUG (Eterna round: R96, puzzle: Same State NG 3)”, under setting [1], the “apparent KD of MS2 coat protein” value was 0.0752 µM.

With “AUGCCAAAUCAAGGAUAUGGAGCCUUAUUGGCUCCAGAAGGUGGGACAUGAGGAUCACCCAUGUGGCAGUGGUCUAAUGACCAC [Fiskers NG1ss - 31] (Eterna round: R96, puzzle: Same State NG 1)”, the “apparent KD of MS2 coat protein” value is, setting by setting: (input ligand: FMN 200 uM) 0.0597 µM; under setting [1], 0.146 µM; (input ligand: none) 0.2 µM.

“AGGCUCAGACGAGGAUAUAUGUCUCGAGCUUCGGCUCGAGACAUGAGGAUCACCCAUGUAAUAACAUAGAAGGUGUCUGAGCCA [SSNG2/1-C1] (Eterna round: R96, puzzle: Same State NG 2)”: the “apparent KD of MS2 coat protein” value (input ligand: FMN 200 uM) is 0.0491 µM, the “apparent KD of MS2 coat protein” value under setting [1] was found to be 0.208 µM and the “apparent KD of MS2 coat protein” value (input ligand: none) is 0.253 µM.

As to “ACAUGAGACUUAGGAUAUGUUGUACCUACAUGUGACAUGAGGAUCACCCAUGUGGUAAGUAUGAGGCAGAAGGAAGAGAUAUGU [Equivalence 39 - Jieux - Same State NG 2] (Eterna round: R96, puzzle: Same State NG 2)”, the “apparent KD of MS2 coat protein” value runs as follows: (input ligand: FMN 200 uM) 0.0235 µM; under setting [1], 0.0459 µM; (input ligand: none) 0.0731 µM.

In the case of “AAUUAAGAUCUAGGAUAUCACGUCGAUUAGACGUGAGAAGGAGAUCAUAACAUGAGGAUCACCCAUGUAUUACAUGAAUUAAUU [SSNG1/6-B2] (Eterna round: R96, puzzle: Same State NG 1)”, the “apparent KD of MS2 coat protein” value under setting [1] was 0.0234 µM.

On to “ACAAGCUUUUUAGGAGAGAAAGGUGGGAAACAUGAGGAUCACCCAUGUAUGGUAGUGAAUAGUGGAACUCGUCUUAU [JR_SHM208A_Sub081] (puzzle: Sensor for hsa-mir-208a)”, for which the “apparent KD of MS2 coat protein” value is, setting by setting: under setting [3], 0.4 µM; under setting [2], 0.104 µM; under setting [4], 0.462 µM.

For the sequence “UACAAUCUAUCUGAGGAUAUCAUGAAAAAAACAUGAGGAUCACCCAUGUGCAGGAAAACUGCAUAUGAGAAGGCAGAUAGAUUGU [salish99_SS2_r3_006] (puzzle: Same State 2)”, the “apparent KD of MS2 coat protein” value under setting [3] was 0.0324 µM, the “apparent KD of MS2 coat protein” value under setting [2] is 0.971 µM and the “apparent KD of MS2 coat protein” value under setting [4] was 1.65 µM.
